Test [1] has as its target T1, GIP130a (human, UniProt Q4L180 1-1135).
T1 construct: Full length; tested as GAL4 domain fusion in yeast two-hybrid
T1 sequence: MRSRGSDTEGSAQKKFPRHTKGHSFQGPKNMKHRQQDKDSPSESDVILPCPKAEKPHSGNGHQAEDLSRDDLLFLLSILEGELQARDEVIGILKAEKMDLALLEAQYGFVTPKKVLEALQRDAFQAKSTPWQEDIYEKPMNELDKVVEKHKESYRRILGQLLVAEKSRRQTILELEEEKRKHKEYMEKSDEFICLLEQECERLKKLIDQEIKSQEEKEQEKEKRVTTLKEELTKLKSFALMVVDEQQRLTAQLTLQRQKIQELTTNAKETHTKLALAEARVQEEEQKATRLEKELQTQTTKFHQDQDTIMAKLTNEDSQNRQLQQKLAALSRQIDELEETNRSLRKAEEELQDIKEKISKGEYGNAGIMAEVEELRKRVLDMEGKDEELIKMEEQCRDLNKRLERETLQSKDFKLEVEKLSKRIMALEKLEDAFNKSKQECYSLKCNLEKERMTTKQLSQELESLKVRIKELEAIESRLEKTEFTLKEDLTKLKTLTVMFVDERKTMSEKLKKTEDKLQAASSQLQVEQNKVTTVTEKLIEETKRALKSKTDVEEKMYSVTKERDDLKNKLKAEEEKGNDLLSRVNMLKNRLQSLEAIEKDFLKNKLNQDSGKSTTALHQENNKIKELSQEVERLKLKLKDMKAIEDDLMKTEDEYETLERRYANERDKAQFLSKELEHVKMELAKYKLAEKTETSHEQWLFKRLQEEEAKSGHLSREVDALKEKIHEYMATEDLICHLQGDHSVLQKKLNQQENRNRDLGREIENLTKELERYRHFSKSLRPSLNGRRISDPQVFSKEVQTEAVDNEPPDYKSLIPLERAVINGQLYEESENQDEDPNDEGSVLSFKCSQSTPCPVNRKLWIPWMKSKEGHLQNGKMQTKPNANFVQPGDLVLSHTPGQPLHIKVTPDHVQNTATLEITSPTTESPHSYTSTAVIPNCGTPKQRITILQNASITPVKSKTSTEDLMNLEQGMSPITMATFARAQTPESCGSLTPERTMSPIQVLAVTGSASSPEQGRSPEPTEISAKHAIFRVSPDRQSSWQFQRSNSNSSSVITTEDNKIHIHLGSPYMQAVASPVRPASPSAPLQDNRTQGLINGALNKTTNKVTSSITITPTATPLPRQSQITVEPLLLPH
As to the kind of experiment: yeast two-hybrid and three-hybrid (conclusion). The method, then: (§1) Accordingly, we have observed with a yeast three-hybrid system that GPBP expression efficiently impairs both I-20 and GIP90 aggregation, and that I-20 and GIP90 efficiently impair GPBP aggregation.
(§2) Deletion mutants were obtained using specific primers and PCR, followed by cloning of the resulting cDNAs in the pGBT9 and pGAD424 vectors. The assays were performed in SFY526 or HF7c Saccharomyces cerevisiae strains, with pGBT9 as GAL4 binding domain vector and pGAD424 as GAL4 activation domain vector, by the lift colony assay procedure. Briefly, the yeast cells were co-transformed with constructs of both binding domain and activation domain vectors, and the co-transformants were selected in medium deficient in both tryptophan and leucine. After five days of incubation at 30° C. the colonies were tested for the expression of β-galactosidase with X-Gal substrate (0.75 mg/ml). […] When the assays were performed with the HF7c strain, the interactions were assessed by the lift colony assay procedure and by growth in medium deficient in histidine, tryptophan and leucine. For yeast three-hybrid system, we used the pBRIDGE vector, which allows the conditional expression of a third protein apart from the usual GAL4 binding and activation domain-fusion proteins of the two-hybrid system. In this case, the expression of GPBP or I-20 or GIP90 was driven by Met25 promoter, active in absence of methionine. In these experiments, the transformed SFY526 cells were plated in medium deficient in tryptophan, leucine and methionine, and subjected to the colony lift assay after five days at 30° C. In the case of the strain HF7c the colonies grown in the cited plates were streaked on medium with the additional deficiency of histidine.

Test [2] concerns the target T2, GIP130c (human, UniProt Q4L180 1-1128).
T2 construct: Full length; tested as GAL4 domain fusion in yeast two-hybrid
T2 sequence: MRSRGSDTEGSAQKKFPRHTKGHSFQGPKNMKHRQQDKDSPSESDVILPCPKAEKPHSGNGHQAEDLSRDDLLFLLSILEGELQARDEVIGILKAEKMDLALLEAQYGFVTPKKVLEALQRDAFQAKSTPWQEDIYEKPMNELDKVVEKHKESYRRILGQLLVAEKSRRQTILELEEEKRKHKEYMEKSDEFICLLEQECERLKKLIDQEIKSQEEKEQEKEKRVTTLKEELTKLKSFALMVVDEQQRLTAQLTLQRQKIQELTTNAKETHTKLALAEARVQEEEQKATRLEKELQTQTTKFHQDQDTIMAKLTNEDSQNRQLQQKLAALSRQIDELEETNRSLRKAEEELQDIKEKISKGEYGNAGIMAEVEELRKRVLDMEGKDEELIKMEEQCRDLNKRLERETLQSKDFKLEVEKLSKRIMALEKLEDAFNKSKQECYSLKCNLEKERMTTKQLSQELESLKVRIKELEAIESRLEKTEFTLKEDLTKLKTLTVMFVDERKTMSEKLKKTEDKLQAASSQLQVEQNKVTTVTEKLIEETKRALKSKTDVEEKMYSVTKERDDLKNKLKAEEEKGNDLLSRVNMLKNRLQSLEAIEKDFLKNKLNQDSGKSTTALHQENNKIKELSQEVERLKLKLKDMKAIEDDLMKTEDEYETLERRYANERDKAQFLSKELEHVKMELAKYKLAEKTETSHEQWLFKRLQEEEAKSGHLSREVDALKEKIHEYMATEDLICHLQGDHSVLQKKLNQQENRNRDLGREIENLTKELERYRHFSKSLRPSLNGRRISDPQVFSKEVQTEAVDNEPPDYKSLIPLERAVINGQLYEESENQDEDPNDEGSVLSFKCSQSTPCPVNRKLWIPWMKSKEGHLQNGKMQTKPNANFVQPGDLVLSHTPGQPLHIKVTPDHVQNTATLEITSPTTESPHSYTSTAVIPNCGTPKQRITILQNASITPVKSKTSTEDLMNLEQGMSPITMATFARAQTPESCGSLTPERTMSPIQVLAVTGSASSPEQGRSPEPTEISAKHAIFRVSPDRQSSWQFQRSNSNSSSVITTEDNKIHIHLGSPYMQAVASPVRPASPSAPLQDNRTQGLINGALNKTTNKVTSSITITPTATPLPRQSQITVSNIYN
As to the kind of experiment: yeast two-hybrid and three-hybrid (conclusion). As for the experimental part:
as §1, §2

B1: Goodpasture antigen binding protein (GPBP) (enzyme, UniProt Q9Y5P4 1-624, looked up)
chain: MSDNQSWNSSGSEEDPETESGPPVERCGVLSKWTNYIHGWQDRWVVLKNNALSYYKSEDETEYGCRGSICLSKAVITPHDFDECRFDISVNDSVWYLRAQDPDHRQQWIDAIEQHKTESGYGSESSLRRHGSMVSLVSGASGYSATSTSSFKKGHSLREKLAEMETFRDILCRQVDTLQKYFDACADAVSKDELQRDKVVEDDEDDFPTTRSDGDFLHSTNGNKEKLFPHVTPKGINGIDFKGEAITFKATTAGILATLSHCIELMVKREDSWQKRLDKETEKKRRTEEAYKNAMTELKKKSHFGGPDYEEGPNSLINEEEFFDAVEAALDRQDKIEEQSQSEKVRLHWPTSLPSGDAFSSVGTHRFVQKPYSRSSSMSSIDLVSASDDVHRFSSQVEEMVQNHMTYSLQDVGGDANWQLVVEEGEMKVYRREVEENGIVLDPLKATHAVKGVTGHEVCNYFWNVDVRNDWETTIENFHVVETLADNAIIIYQTHKRVWPASQRDVLYLSVIRKIPALTENDPETWIVCNFSVDHDSAPLNNRCVRAKINVAMICQTLVSPPEGNQEISRDNILCKITYVANVNPGGWAPASVLRAVAKREYPKFLKRFTSYVQEKTAGKPILF
notes: Protein kinase; Fusion parts are not written as pieces
Regarding B1, the binding result in test [1] and in test [2] was “binds” in each case.

The record behind these values is patent US20030108554A1 (published 2003).
